Biological target: the molecule itself
Experiment: FRET or BRET + split reporter

B1: Adenosine A2A receptor (receptor, UniProt P29274 1-412, looked up)
chain: MPIMGSSVYITVELAIAVLAILGNVLVCWAVWLNSNLQNVTNYFVVSLAAADIAVGVLAIPFAITISTGFCAACHGCLFIACFVLVLTQSSIFSLLAIAIDRYIAIRIPLRYNGLVTGTRAKGIIAICWVLSFAIGLTPMLGWNNCGQPKEGKNHSQGCGEGQVACLFEDVVPMNYMVYFNFFACVLVPLLLMLGVYLRIFLAARRQLKQMESQPLPGERARSTLQKEVHAAKSLAIIVGLFALCWLPLHIINCFTFFCPDCSHAPLWLMYLAIVLSHTNSVVNPFIYAYRIREFRQTFRKIIRSHVLRQQEPFKAAGTSARVLAAHGSDGEQVSLRLNGHPPGVWANGSAPHPERRPNGYALGLVSGGSAQESQGNTGLPDVELLSHELKGVCPEPPGLDDPLAQDGAGVS
For B1, which “stoichiometry N” value is on record?
Its value is no less than 3.

— publication PMC2990800 (Molecular and cellular endocrinology, 2010)
